# Assay results as given in patent US20050107285A1.
# Legend:
# [1] = target: FcγRIIIb receptor on human neutrophils (human) (UniProt O75015); assay: cell-based or functional assay
# [2] = target: FcγRIIIb receptor on human neutrophils (human) (UniProt O75015); assay: flow cytometry of TNFα-primed human neutrophils with saturating FITC-Leu11b, quantified with Quantum Simply Cellular microbeads
# Chain of UniProt O75015 (O75015 17-200): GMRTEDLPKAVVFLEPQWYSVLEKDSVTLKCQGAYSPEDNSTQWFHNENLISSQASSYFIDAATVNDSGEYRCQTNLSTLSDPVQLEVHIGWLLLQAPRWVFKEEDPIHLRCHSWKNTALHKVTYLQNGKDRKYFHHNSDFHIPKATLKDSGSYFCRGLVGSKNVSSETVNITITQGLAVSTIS
respiratory burst (luminol chemiluminescence) of primed neutrophils after PI-PLC depletion of surface FcγRIIIb [1] [% decrease],antibody-binding sites per cell (antibody-binding sites per cell) [2],Substance
70,,insoluble IgG-containing immune complexes (human serum albumin and rabbit anti-HSA antibodies) (from UniProt P02768 25-609)
,240000,FITC-labelled Leu11b (anti-CD16) (antibody)
